This is an account of results in patent publication US20230391865A1 (University of California, published 2023).

B1: Anti-TSPAN3 M5 clone monoclonal antibody (antibody, IgG2b, V domains shown)
VH: EVQLQQSGPELVKPGASVKMSCKASGYTFTDFYMHWVKQSHGRSLEWIGYIYPHNGFTKYNQSFMGKATLTVNKSSNTAYMELRSLTSEDSAVYYCARRYGDYWGQGISVTVSS
VL: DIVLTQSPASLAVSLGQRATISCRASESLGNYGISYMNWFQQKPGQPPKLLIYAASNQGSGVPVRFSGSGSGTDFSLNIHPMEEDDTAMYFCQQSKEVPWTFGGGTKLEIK
notes: Mouse hybridoma clone; isotype IgG2b, kappa; also called Clone 5 (TSPAN3-C - M5)
B2: Anti-TSPAN3 M6 clone monoclonal antibody (antibody, IgG2b, V domains shown)
VH: EVQLQQSGPELVKPGASVKMSCKASGYTFTDFYMHWVKQSHGRSLEWIGYIYPHNGFTKYNQSFMGKATLTVNKSSNTAYMELRSLTSEDSAVYYCARRYGDYWGQGISVTVSS
VL: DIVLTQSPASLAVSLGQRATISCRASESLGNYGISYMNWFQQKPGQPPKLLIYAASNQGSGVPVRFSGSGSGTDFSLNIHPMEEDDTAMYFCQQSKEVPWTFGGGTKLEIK
notes: Mouse hybridoma clone; isotype IgG2b, kappa; also called Clone 6 (TSPAN3-C - M6)
B3: Anti-TSPAN3 M3 clone monoclonal antibody (antibody, V domains shown)
VH: QIQLVQSGPELKKPGETVKISCKASGYTFTTYGMSWVKQAPGKGLKWMGWINTYSGVPTYADDFKGRFAFSLETSASTAYLQINNLKNEDTATYFCARSHYSNFYAMDYWGQEPQSP
VL: DIVMTQSHKFMSTSVGDRVSITCKASQDVGTAVAWYQQKPGQSPKLLIYWASTRHTGVPDRFTGSGSGTDFTLTISNVQSEDLADYFCQQYSSYPLTFGAGTKLELK
notes: Mouse hybridoma clone; isotype IgM, kappa; also called Clone 3 (TSPAN3-C - M3)
B4: Anti-TSPAN3 M1 clone monoclonal antibody (antibody, IgG1, V domains shown)
VH: QVQLQQPGAELVKPGASVKLSCKASGYTFTSYWMHWVKQRPGQGLEWIGMIHPNSGSPNYNERFKSKATLTVDKSSSTAYMQLSSLTSEDSAVYFCARWGDGYHRYFDVWGTGTTVTVSS
VL: DIQMTQSPASLSASVGETVTITCRASGNIHNYLAWYQQKQGKSPQLLVYNAKTLADGVPSRFSGSGSGTQYSLKINSLQPEDFGSYYCQHFWSTPPYTFGGGTKLEIK
notes: Mouse hybridoma clone (CD-1 library); isotype IgG1, kappa; also called Clone 1 (TSPAN3-C - M1)

For the experiment, the target named is T1, human Tetraspanin-3 (TSPAN3) (human, UniProt O60637 1-253).
T1 construct: whole, on cells; also called human TSPAN3; cell surface expressed TSPAN3
T1 sequence (O60637 whole entry): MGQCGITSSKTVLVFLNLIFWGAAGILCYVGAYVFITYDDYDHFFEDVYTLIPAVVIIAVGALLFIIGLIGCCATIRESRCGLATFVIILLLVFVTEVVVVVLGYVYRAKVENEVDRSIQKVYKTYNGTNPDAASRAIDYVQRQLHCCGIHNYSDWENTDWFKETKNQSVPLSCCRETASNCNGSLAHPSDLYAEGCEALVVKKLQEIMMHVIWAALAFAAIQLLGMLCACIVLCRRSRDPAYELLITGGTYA
Nature of the experiment: flow cytometry (FACS) on TSPAN3-expressing cells. From the text: Using the hybridoma technology, i.e., fusing the antibody-producing B-cells harvested from the immunized mice with myeloma cells, two hybridoma fusion libraries were generated three days later (one from the reactive NZBW mouse and one from the two pooled reactive CD-1 mice), and then retested for reactivity to surface-expressed human TSPAN3.
With B1, the “% Gated” value was determined as 73% and the “Median Fluorescence Intensity (MFI)” value is 529 MFI.
Regarding B2, the “% Gated” value was determined as 69.5% and the “Median Fluorescence Intensity (MFI)” value was found to be 308 MFI.
Turning to B3, the “% Gated” value amounted to 60.7% and the “Median Fluorescence Intensity (MFI)” value is 284 MFI.
For B4, in that order: 59% and 290 MFI.
